# Target: T1, NFluc-Pum2 (pumilio domain) (UniProt Q8TB72)
# T1 sequence: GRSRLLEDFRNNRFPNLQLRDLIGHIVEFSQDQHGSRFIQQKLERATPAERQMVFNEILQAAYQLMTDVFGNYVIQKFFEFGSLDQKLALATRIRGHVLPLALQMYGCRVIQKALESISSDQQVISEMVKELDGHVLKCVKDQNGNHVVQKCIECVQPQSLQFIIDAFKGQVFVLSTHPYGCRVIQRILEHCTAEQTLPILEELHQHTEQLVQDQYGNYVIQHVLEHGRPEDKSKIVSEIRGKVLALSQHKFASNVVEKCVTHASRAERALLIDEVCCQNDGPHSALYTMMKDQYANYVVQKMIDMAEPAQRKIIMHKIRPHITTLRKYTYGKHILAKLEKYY
# Settings: ternary with CFluc-Ago
sequence,measurement,value
CAUGGUGUAUAUAGUCUUUUGAUAUAGCGGC / CUAUAUACACCAUGUU [Pum target RNA + Pum1 guide],activity (fold luminescence vs controls),3
